# Test results as given in IntAct's records for PubMed 34597683.
# B1: Prickle-like protein 1 (Mus musculus), Q3U5C7 (parent)
# chain: MPLEMEPKMSKLVFGCQRSSTSDDDSGCALEEYAWVPPGLRPEQIQLYFACLPEEKVPYVNSPGEKHRIKQLLYQLPPHDNEVRYCQSLSEEEKKELQVFSAQRKKEALGRGTIKLLSRAVMHAVCEQCGLQMNGGEVAVFASRAGPGVCWHPSCFVCFTCNELLVDLIYFYQDGKIHCGRHHAELLKPRCSACDEIIFADECTEAEGRHWHMKHFCCLECETVLGGQRYIMKDGRPFCCGCFESLYAEYCETCGEHIGVDHAQMTYDGQHWHATEACFSCAQCKASLLGCPFLPKQGQIYCSKTCSLGEDIHASDSSDSAFQSARSRDSRRSVRMGRSSRSADQCRQSLLLSPALNYKFPGLSGNADDTLSRKLDDVSLASRQGAGFANEEFWKARVEQEASEDPEEWAEHEDYMTQLLLKFGDKNLFQQQSSEVDPRASEHWIPDNMVTNKPEVKPNHQGLASKKYQSDMYWAQSQDGLGDSAYGSHPGPASSRRLQELDLDHGAAGYTHDQSQWYEDSLECLSDLKPEQSIRDSMDSLALSNITGASVDGESKPRPSLYSLQNFEEIEAEDCEKMSNMGTLNSSMLHRSAESLQSLNSGLCPEKILPEEKPAHLPVLRRSKSQSRPQQVKFSDDVIDNGSYDIEIRQPPMSERTRRRAYHFEERGSRPHHHRHRRSRKSRSDNALNLVTERKYSAKDRLRLYTPDNYEKFIQNKSARELQAYMQNANLYSQYAHATSDYALQNPGMNRFLGLCGEDDDSWCSSSTSSSDSEEEGYFLGQPIPQPRPQRFTYYTDDLSSPASALPTPQFTQRTTKSKKKKGHKGKNCIIS
# partner: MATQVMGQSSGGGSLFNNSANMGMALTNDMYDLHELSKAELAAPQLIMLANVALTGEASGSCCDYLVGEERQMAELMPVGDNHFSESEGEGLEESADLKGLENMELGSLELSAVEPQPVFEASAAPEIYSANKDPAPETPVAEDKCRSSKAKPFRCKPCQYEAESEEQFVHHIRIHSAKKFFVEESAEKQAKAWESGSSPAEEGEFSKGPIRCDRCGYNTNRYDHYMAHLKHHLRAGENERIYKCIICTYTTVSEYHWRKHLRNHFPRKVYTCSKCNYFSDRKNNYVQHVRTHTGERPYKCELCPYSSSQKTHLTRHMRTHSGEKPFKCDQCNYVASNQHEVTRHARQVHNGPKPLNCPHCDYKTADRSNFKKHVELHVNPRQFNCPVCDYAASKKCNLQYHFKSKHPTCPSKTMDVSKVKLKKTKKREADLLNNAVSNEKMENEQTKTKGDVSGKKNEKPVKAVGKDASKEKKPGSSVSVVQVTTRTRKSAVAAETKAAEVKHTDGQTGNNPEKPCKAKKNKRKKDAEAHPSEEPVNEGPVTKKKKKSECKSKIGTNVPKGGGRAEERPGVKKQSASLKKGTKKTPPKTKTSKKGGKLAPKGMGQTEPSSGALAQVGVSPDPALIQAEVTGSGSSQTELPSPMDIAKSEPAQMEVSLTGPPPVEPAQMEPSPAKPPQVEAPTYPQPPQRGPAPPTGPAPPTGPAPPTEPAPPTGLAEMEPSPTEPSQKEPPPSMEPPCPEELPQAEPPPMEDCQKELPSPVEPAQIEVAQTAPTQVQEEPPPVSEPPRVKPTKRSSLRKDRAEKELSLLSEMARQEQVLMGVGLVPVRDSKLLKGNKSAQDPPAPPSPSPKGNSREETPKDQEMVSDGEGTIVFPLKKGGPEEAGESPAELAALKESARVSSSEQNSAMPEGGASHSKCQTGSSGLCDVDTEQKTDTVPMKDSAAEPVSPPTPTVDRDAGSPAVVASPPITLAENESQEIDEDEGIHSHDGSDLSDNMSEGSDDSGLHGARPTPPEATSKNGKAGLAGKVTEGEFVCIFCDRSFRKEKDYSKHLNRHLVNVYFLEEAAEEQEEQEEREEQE
# Variants of: B1
# Details: with rest_mouse Rest
row,effect of a mutation on the interaction,Variant
1,decreasing interaction,R104Q
